Source: the supplement of paper PMC9112550, “Optimization of the antimicrobial peptide Bac7 by deep mutational scanning” (BMC Biology, 2022)

Tested on: Escherichia coli TOP10
Experiment: shrunken log2 fold change of peptide-encoding DNA abundance (4.5 h post-induction vs induction); higher = less antimicrobial activity (less host growth inhibition)
Details: time post-induction: 4.5 h; library: site-saturation at positions 5, 18, 19, 20
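Note: peptides expressed intracellularly from a pBAD plasmid library in pooled LB shake-flask culture, induced with 0.3% L-arabinose, DNA abundance read by NGS, three biological replicates, DESeq2 with apeglm shrinkage.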

Sequence | shrunken log2 fold change
RRIRPRPPRLPRPRPRPHKIPRP | -0.193
RRIRQRPPRLPRPRPRPTMHPRP | -0.0393
RRIRGRPPRLPRPRPRPFRSPRP | -0.599
RRIRIRPPRLPRPRPRPRHQPRP | -0.289
RRIRIRPPRLPRPRPRPFNMPRP | -2.55
RRIRVRPPRLPRPRPRPFKIPRP | -0.342
RRIRVRPPRLPRPRPRPRRAPRP | 0.751
RRIRMRPPRLPRPRPRPFVWPRP | 0.246
RRIRWRPPRLPRPRPRPAKIPRP | 0.132
RRIRVRPPRLPRPRPRPCLRPRP | -0.146
RRIRGRPPRLPRPRPRPHVSPRP | 0.396
RRIRCRPPRLPRPRPRPSELPRP | -0.107
RRIRQRPPRLPRPRPRPEWSPRP | 0.0925
RRIRSRPPRLPRPRPRPGSLPRP | -0.0216
RRIRARPPRLPRPRPRPKQVPRP | 0.0289
RRIRNRPPRLPRPRPRPRAWPRP | -0.054
RRIRIRPPRLPRPRPRPHPAPRP | -0.516
RRIRKRPPRLPRPRPRPNFWPRP | -0.152
RRIRWRPPRLPRPRPRPLSCPRP | 0.154
RRIRTRPPRLPRPRPRPRQWPRP | -0.054
RRIRTRPPRLPRPRPRPSSTPRP | -0.604
RRIRRRPPRLPRPRPRPTMPPRP | 0.438
RRIRTRPPRLPRPRPRPRHRPRP | 0.0476
RRIRCRPPRLPRPRPRPYNCPRP | -0.195
RRIRARPPRLPRPRPRPGYPPRP | 0.0269

Sequence | shrunken log2 fold change
RRIRRRPPRLPRPRPRPMIRPRP | 0.272
RRIRCRPPRLPRPRPRPYFVPRP | -1.13
RRIRSRPPRLPRPRPRPDMPPRP | -0.0754
RRIRKRPPRLPRPRPRPVVYPRP | -0.266
RRIRWRPPRLPRPRPRPCNMPRP | -0.179
RRIRDRPPRLPRPRPRPNDEPRP | 0.418
RRIRKRPPRLPRPRPRPGFPPRP | 0.419
RRIRHRPPRLPRPRPRPHAKPRP | -0.00884
RRIRCRPPRLPRPRPRPLIPPRP | -0.366
RRIRTRPPRLPRPRPRPHVEPRP | 0.0236
RRIRYRPPRLPRPRPRPECHPRP | 0.0154
RRIRMRPPRLPRPRPRPAWSPRP | 0.44
RRIRHRPPRLPRPRPRPNKKPRP | -0.0825
RRIRTRPPRLPRPRPRPTVIPRP | -0.17
RRIRPRPPRLPRPRPRPQSNPRP | -0.285
RRIRIRPPRLPRPRPRPYDRPRP | -0.499
RRIRSRPPRLPRPRPRPMVTPRP | -0.134
RRIRSRPPRLPRPRPRPWLDPRP | -0.0811
RRIRGRPPRLPRPRPRPFAQPRP | 0.456
RRIRARPPRLPRPRPRPENTPRP | 0.397
RRIRNRPPRLPRPRPRPENNPRP | -0.106
RRIRFRPPRLPRPRPRPIQEPRP | -0.541
RRIRYRPPRLPRPRPRPMDYPRP | -0.218
RRIRYRPPRLPRPRPRPQMFPRP | -0.0885
RRIRNRPPRLPRPRPRPYCEPRP | -0.469

Sequence | shrunken log2 fold change
RRIRMRPPRLPRPRPRPETVPRP | 2.2
RRIRKRPPRLPRPRPRPFLPPRP | -0.0487
RRIRVRPPRLPRPRPRPHPQPRP | -0.0987
RRIRLRPPRLPRPRPRPKEAPRP | -0.011
RRIRGRPPRLPRPRPRPIKMPRP | 0.441
RRIRDRPPRLPRPRPRPDLQPRP | 1.54
RRIRVRPPRLPRPRPRPYANPRP | 0.0231
RRIRSRPPRLPRPRPRPFCQPRP | -0.0847
RRIRIRPPRLPRPRPRPDPDPRP | -0.131
RRIRLRPPRLPRPRPRPFTLPRP | -0.192
RRIRGRPPRLPRPRPRPACQPRP | 0.883
RRIRNRPPRLPRPRPRPRSPPRP | 2
RRIRHRPPRLPRPRPRPVISPRP | -0.199
RRIRQRPPRLPRPRPRPCQGPRP | -0.0332
RRIRGRPPRLPRPRPRPVDRPRP | 0.297
RRIRFRPPRLPRPRPRPPTCPRP | 0.186
RRIRGRPPRLPRPRPRPYDGPRP | -0.387
RRIRQRPPRLPRPRPRPPCWPRP | 0.102
RRIRRRPPRLPRPRPRPMTGPRP | 0.0638
RRIRRRPPRLPRPRPRPHIFPRP | -0.019
RRIRMRPPRLPRPRPRPRLTPRP | 1.13
RRIRVRPPRLPRPRPRPQNPPRP | -0.396
RRIRGRPPRLPRPRPRPRQIPRP | 0.684
RRIRFRPPRLPRPRPRPHNQPRP | -0.75
RRIRLRPPRLPRPRPRPKACPRP | 0.16

Sequence | shrunken log2 fold change
RRIRVRPPRLPRPRPRPLWDPRP | 0.00404
RRIRLRPPRLPRPRPRPMRNPRP | 0.372
RRIRLRPPRLPRPRPRPPAEPRP | 0.404
RRIRKRPPRLPRPRPRPTCQPRP | 0.333
RRIRHRPPRLPRPRPRPRFDPRP | -0.163
RRIRDRPPRLPRPRPRPFKAPRP | -0.334
RRIRERPPRLPRPRPRPIWYPRP | 0.0381
RRIRFRPPRLPRPRPRPYDYPRP | -0.107
RRIRTRPPRLPRPRPRPAADPRP | 0.453
RRIRHRPPRLPRPRPRPKDWPRP | 0.207
RRIRVRPPRLPRPRPRPFIMPRP | -0.084
RRIRCRPPRLPRPRPRPCPHPRP | -0.235
RRIRKRPPRLPRPRPRPPSFPRP | 0.288
RRIRPRPPRLPRPRPRPYWMPRP | -1.06
RRIRHRPPRLPRPRPRPAMSPRP | 0.0912
RRIRHRPPRLPRPRPRPETLPRP | -0.18
RRIRDRPPRLPRPRPRPTDAPRP | -0.036
RRIRCRPPRLPRPRPRPKHNPRP | -0.325
RRIRPRPPRLPRPRPRPDPIPRP | 0.0782
RRIRARPPRLPRPRPRPMSWPRP | 0.399
RRIRLRPPRLPRPRPRPMAPPRP | 0.19
RRIRKRPPRLPRPRPRPKEMPRP | 0.682
RRIRCRPPRLPRPRPRPNGAPRP | -0.0129
RRIRSRPPRLPRPRPRPSIVPRP | -0.525
RRIRRRPPRLPRPRPRPPEPPRP | 0.977

Sequence | shrunken log2 fold change
RRIRLRPPRLPRPRPRPENMPRP | -0.4
RRIRGRPPRLPRPRPRPHTQPRP | 0.0483
RRIRFRPPRLPRPRPRPKAGPRP | 0.307
RRIRQRPPRLPRPRPRPNPNPRP | -0.0129
RRIRYRPPRLPRPRPRPGQIPRP | -0.0348
RRIRARPPRLPRPRPRPHIKPRP | -0.388
RRIRYRPPRLPRPRPRPLLNPRP | -0.19
RRIRIRPPRLPRPRPRPACMPRP | -0.0966
RRIRTRPPRLPRPRPRPHNGPRP | -0.0789
RRIRCRPPRLPRPRPRPTLFPRP | 0.196
RRIRCRPPRLPRPRPRPYDHPRP | -0.797
RRIRKRPPRLPRPRPRPFYWPRP | 0.144
RRIRCRPPRLPRPRPRPYPNPRP | -0.459
RRIRVRPPRLPRPRPRPMHPPRP | 0.0843
RRIRYRPPRLPRPRPRPNFNPRP | -0.818
RRIRRRPPRLPRPRPRPVAKPRP | 0.386
RRIRCRPPRLPRPRPRPISPPRP | 0.153
RRIRQRPPRLPRPRPRPGIAPRP | 0.719
RRIRPRPPRLPRPRPRPICRPRP | -0.276
RRIRKRPPRLPRPRPRPEMSPRP | 0.325
RRIRFRPPRLPRPRPRPLCAPRP | -0.0266
RRIRQRPPRLPRPRPRPPDCPRP | -0.0194
RRIRERPPRLPRPRPRPTWFPRP | 0.118
RRIRPRPPRLPRPRPRPDSLPRP | -0.257
RRIRTRPPRLPRPRPRPYYMPRP | -1.06
